Laboratory results as given in US20210246217A1 (LEADARTIS S L, published 2021).
Each block holds one molecule with its values, some of them ahead of it.

How the values were obtained:
[1] = target: murine 4-1BB on the cell surface (mouse) (UniProt P20334); test: cell-based or functional assay
[2] = target: T1, recombinant mouse TNFSF9 (4-1BBL) (mouse, UniProt P41274 104-309, limits assumed); test: competition ELISA on immobilized m4-1BB
T1 construct: It was detected through a tag in FACS and carried the CF488A label in RICS; also called m4-1BBL; recombinant soluble mouse 4-1BBL
T1 sequence (looked up): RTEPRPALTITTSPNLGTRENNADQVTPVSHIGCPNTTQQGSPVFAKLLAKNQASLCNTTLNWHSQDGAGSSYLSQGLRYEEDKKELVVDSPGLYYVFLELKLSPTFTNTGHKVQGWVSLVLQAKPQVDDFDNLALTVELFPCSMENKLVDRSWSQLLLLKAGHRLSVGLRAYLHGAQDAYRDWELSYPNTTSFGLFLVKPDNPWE
Protocol: Both m4-1BB (3 μg/ml) or hEGFR (5 μg/ml) were immobilized on Maxisorp ELISA plates (NUNC Brand Products, Roskilde, Denmark) overnight at 4° C. After washing and blocking with 200 μl PBS-5% BSA, 100 μl of conditioned media or purified protein solution at 1 μg/ml were added and incubated for 1 hour at room temperature. The wells were washed for three times with PBS0.05% Tween-20, and 100 μl of anti-c-myc mAh or anti-FLAG mAh were added for 1 hour incubation at room temperature. The plate was washed as above described and 100 μl of HRP-conjugated goat anti-mouse IgG were added to each well. Afterwards, the plate was washed and developed using OPD (Sigma-Aldrich). For competition ELISA, m4-1BB (3 μg/ml) was immobilized overnight at 4° C. After washing and blocking, recombinant m4-1BBL was added at desired concentration to the wells for 1 hour. Afterwards, purified antibody solution was serially diluted in blocking buffer, added to the wells and incubated for 1 hour at room temperature. Following standard washing steps, anti-FLAG mAh solution was added for 1 hour. After washing HRP-conjugated goat anti-mouse IgG was added and developed using OPD.

human CEA (hCEA) = target: T2, human CEA (hCEA) (human, UniProt P06731 35-685, limits assumed); test: BLI, m4-1BB-coated biosensors, hCEA in solution
T2 construct: also called carcinoembryonic antigen
T2 sequence (looked up): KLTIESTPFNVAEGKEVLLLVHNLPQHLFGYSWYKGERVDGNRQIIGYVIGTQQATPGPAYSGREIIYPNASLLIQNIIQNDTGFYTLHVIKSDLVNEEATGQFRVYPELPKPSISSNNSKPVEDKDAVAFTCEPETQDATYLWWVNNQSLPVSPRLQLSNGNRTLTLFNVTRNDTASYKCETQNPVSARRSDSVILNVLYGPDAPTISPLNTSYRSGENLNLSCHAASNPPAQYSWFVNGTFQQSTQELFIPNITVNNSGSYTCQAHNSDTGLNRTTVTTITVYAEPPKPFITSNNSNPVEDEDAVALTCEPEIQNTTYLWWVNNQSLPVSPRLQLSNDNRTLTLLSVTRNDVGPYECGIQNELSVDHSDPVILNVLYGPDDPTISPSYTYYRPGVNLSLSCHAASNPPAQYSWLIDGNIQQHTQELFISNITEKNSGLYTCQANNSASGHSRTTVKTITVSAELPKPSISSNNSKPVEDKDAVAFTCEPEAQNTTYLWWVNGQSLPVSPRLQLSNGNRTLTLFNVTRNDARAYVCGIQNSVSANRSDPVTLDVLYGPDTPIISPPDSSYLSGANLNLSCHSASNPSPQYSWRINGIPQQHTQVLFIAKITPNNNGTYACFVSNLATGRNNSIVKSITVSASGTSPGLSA
Protocol: FIG. 26. Functional characterization of purified 1D8^{N/C}CEA.1 trimerbody. Biolayer interferometry (BLI)-derived sensorgrams from the interactions between immobilized m4-1BB and 1D8^{N/C}CEA. 1 at 4 or 2 nM. Experimental responses are traced in black, and fitting curves are in gray (A). […] 1 bispecificity towards biosensors coated with m4-1BB and hCEA in solution (B and C). Following association with either 1D8^{N/C}CEA.1 or 1D8^N18 (sample indicated with arrows) or kinetics buffer only (sample indicated with arrows), biosensors were transferred into 50 nM of hCEA (black and red) or kinetics buffer only (blue and green).
The ability of 1D8^{N/C}CEA.1 to bind biosensor-immobilized m4-1BB and hCEA in solution at the same time was investigated using biolayer interferometry (BLI) on an Octet RED96 system (Fortebio, Menlo Park, Calif., USA). AR2G biosensors (Fortebio) were activated using s-NHS and EDC, and then coated with 10 μg/mL m4-1BB in 10 mM sodium acetate at pH 6 for 20 minutes, followed by quenching with ethanolamine. After 10 minutes of equilibration in kinetics buffer (PBS with 0.1% BSA and 0.05% Tween20), the coated biosensors were incubated in kinetics buffer containing 4 nM of 1D8^N18, 1D8^{N/C}CEA. 1, or only kinetics buffer for one hour. […]

lateral mobility at the plasma membrane (diffusion coefficient, RICS), before clustering [1]: 1.5 µm^2/sec
lateral mobility at the plasma membrane (diffusion coefficient, RICS), in clusters [1]: 0.35 µm^2/sec
Molecule: rat IgG2a anti-mouse 4-1BB (clone 1D8) (antibody)

binding result [2]: binds
binding result (human CEA (hCEA)): no binding (tested: 50 nM of hCEA)
B1: mouse 4-1BB:hFc chimera (m4-1BB) (Fc fusion, UniProt P20334 24-187, looked up)
chain: VQNSCDNCQPGTFCRKYNPVCKSCPPSTFSSIGGQPNCNICRVCAGYFRFKKFCSSTHNAECECIEGFHCLGPQCTRCEKDCRPGQELTKQGCKTCSLGTFNDQNGTGVCRPWTNCSLDGRSVLKTGTTEKDVVCGPPVVSFSPSTTISVTPEGGPGGHSLQVL
notes: Bought from R&D Systems; also called murine 4-1BB in fusion with human Fc; not shown: human Fc
